Measurements published in paper PMC2844702 (Chemistry & biology, 2009).

Columns and labels:
[1] = target: TrkB; format: binding
[2] = target: TrkB (UniProt Q16620); conditions: cited from earlier work
[3] = target: TrkA (UniProt P04629); conditions: cited from earlier work
[4] = target: TrkA 97-120 (UniProt P04629); conditions: cited from earlier work

Chain of UniProt Q16620 (Q16620 32-430): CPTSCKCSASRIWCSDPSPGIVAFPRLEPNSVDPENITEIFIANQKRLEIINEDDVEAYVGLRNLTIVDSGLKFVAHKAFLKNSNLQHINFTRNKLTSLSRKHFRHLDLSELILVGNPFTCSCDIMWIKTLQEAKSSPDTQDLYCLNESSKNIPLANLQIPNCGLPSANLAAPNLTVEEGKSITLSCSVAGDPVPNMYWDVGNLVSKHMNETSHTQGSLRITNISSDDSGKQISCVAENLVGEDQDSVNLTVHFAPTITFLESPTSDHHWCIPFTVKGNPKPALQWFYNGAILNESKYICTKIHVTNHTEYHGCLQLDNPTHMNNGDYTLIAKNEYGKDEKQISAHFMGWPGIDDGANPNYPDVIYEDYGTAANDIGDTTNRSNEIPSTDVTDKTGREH

CN(C)CCC=C1c2ccccc2CCc2ccccc21 [amitriptyline]
Kd [1]: ~14000 nM

BDNF (from UniProt P23560)
Kd [2]: 1 nM

NGF (from UniProt P01139)
Kd [3]: 1 nM | Kd [4]: 1.3 nM
